Results reported in the supplement of paper PMC10065799, “High-throughput profiling of sequence recognition by tyrosine kinases and SH2 domains using bacterial peptide display” (eLife, 2023).

What was measured:
c-Src SH2 = assay: SH2 binding enrichment of the phosphorylated peptide, bacterial display (enrichment ratio); higher = better substrate or ligand; peptides without Tyr show the background
Grb2 SH2 = Grb2 SH2 (UniProt P62993); assay: as above
SHP2-C SH2 = assay: as above
FGFR3 = FGFR3 (UniProt P22607); assay: phosphorylation enrichment, bacterial display (enrichment ratio); higher = better substrate or ligand; peptides without Tyr show the background
Fes = Fes (UniProt P07332); assay: as above
Fes, sequence (P07332 whole entry, looked up): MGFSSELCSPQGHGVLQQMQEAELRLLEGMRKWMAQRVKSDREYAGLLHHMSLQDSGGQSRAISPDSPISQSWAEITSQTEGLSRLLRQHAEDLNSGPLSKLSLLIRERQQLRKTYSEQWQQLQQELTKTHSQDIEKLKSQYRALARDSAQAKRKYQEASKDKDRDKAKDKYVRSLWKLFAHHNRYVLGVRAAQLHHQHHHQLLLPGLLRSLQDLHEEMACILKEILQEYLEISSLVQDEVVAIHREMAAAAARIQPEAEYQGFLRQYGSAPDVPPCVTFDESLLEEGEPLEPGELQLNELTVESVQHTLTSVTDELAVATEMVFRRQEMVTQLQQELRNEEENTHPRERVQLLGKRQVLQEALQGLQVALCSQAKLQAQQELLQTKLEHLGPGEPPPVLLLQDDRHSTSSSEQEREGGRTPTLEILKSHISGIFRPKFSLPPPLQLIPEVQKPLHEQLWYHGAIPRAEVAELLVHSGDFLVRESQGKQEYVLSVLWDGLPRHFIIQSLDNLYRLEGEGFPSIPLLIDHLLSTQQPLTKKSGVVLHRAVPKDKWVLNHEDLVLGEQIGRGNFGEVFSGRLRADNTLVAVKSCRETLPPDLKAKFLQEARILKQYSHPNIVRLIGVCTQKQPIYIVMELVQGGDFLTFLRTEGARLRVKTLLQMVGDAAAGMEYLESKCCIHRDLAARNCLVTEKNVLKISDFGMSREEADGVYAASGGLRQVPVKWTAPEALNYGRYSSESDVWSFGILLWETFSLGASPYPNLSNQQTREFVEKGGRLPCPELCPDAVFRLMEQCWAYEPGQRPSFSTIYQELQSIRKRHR

c-Abl (mouse) = assay: as above
EPHB1 = EPHB1 (UniProt P54762); assay: as above
Jak2 = Jak2 (UniProt O60674); assay: as above
Jak2, sequence (O60674 whole entry, looked up): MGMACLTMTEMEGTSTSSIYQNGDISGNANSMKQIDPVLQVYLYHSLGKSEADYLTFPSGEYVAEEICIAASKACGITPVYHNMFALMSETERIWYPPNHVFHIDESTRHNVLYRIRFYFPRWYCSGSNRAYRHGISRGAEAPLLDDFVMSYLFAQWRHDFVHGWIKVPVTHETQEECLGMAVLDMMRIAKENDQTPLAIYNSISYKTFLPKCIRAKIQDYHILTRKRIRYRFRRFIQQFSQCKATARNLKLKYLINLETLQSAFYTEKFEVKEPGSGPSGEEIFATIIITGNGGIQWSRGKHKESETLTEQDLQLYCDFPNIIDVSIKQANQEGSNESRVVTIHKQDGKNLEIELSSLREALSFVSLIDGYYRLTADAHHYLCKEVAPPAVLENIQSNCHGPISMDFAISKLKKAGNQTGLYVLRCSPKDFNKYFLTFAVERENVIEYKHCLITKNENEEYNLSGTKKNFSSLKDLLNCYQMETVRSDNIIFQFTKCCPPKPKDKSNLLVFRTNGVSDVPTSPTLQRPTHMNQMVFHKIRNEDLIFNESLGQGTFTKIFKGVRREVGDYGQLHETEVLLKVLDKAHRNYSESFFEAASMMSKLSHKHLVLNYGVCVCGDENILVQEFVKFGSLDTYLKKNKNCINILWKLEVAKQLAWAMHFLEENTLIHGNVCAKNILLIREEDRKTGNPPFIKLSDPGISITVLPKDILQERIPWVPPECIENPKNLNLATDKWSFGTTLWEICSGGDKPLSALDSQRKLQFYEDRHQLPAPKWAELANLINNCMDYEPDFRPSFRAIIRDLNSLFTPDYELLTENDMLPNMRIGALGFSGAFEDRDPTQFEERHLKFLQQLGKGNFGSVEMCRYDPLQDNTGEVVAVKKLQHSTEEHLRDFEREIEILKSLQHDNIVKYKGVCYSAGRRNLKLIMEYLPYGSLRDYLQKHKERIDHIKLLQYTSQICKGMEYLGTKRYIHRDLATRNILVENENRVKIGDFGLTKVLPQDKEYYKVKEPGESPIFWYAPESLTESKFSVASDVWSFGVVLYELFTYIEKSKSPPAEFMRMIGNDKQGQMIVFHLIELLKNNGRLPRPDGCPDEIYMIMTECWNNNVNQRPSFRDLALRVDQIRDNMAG

Fyn = Fyn (UniProt P06241); assay: as above
Fyn, sequence (P06241 whole entry, looked up): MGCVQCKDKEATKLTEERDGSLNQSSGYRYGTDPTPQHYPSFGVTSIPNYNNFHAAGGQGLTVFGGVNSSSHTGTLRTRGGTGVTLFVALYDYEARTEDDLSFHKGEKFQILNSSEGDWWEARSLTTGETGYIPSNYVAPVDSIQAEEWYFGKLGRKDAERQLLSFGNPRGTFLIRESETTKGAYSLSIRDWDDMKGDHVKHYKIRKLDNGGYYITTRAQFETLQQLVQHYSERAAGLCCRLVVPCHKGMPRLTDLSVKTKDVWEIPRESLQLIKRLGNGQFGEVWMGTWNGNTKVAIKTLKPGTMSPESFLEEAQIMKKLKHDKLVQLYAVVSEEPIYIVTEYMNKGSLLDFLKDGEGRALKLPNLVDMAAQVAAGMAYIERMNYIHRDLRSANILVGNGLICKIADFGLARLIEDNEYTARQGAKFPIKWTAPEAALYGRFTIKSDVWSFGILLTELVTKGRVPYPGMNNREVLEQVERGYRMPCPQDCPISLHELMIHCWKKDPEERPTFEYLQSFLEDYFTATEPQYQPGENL

Fer (mouse) = assay: as above
Hck = Hck (UniProt P08631); assay: as above
Hck, sequence (P08631 whole entry, looked up): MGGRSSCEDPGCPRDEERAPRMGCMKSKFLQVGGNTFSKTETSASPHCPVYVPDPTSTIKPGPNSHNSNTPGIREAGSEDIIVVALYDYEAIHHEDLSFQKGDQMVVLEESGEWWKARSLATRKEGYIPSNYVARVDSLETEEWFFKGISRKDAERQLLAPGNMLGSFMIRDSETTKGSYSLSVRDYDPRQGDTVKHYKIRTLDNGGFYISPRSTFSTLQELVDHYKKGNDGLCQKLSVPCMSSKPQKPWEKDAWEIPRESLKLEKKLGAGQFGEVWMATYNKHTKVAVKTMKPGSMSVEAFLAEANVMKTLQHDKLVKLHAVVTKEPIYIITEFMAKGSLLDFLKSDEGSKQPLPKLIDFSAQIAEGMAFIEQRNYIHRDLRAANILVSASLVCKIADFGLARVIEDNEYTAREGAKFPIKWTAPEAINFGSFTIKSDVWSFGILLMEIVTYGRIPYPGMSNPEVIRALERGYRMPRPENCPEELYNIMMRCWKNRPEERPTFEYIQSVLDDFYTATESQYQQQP

MERTK = MERTK (UniProt Q12866); assay: as above
c-Src = assay: as above
EPHB2 = EPHB2 (UniProt P29323); assay: as above
EPHB2, sequence (P29323 whole entry, looked up): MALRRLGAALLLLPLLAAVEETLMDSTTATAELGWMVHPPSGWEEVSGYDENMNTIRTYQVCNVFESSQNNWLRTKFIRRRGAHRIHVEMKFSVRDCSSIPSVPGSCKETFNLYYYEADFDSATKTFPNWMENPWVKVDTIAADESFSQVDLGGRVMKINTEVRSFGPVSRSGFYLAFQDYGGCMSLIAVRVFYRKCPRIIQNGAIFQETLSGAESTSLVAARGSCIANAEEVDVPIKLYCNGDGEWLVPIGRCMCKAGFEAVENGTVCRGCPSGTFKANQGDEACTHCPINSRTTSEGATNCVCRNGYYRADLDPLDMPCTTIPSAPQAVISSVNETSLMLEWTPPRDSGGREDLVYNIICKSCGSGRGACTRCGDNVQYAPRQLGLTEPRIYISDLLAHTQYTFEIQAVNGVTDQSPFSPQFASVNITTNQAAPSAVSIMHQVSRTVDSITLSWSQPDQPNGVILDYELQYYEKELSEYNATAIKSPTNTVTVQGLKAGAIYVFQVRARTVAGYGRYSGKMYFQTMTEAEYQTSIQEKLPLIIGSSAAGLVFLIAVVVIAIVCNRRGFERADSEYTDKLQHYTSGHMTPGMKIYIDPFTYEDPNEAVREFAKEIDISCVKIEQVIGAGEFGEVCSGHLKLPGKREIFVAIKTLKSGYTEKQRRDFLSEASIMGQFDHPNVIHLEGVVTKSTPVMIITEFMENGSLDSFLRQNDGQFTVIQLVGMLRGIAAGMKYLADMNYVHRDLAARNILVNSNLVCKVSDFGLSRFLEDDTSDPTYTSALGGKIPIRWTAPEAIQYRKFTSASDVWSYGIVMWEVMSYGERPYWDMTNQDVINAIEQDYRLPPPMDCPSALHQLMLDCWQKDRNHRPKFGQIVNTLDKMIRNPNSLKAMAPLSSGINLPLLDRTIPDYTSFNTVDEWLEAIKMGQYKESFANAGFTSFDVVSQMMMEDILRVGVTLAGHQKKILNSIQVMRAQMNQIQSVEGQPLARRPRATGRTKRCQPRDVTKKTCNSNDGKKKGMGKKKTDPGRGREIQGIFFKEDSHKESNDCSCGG

AncSZ = assay: as above
FGFR1 = FGFR1 (UniProt P11362); assay: as above
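Wherever SH2 binding enrichment of the phosphorylated peptide, bacterial display is given: peptide library displayed on the E. coli surface as eCPX fusions, selected cells deep-sequenced, score is each peptide's frequency after selection divided by its frequency in the input.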
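Wherever phosphorylation enrichment, bacterial display is given: 11-residue human phosphosite peptides and single-mutation variants displayed on the E. coli surface, counted by deep sequencing, each peptide's frequency after selection divided by its frequency in the unselected input library; frequency after pTyr selection over input frequency; kinase dosed for 20-30% of maximal phosphorylation in three min.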

Grb2 SH2, sequence (P62993 whole entry, looked up): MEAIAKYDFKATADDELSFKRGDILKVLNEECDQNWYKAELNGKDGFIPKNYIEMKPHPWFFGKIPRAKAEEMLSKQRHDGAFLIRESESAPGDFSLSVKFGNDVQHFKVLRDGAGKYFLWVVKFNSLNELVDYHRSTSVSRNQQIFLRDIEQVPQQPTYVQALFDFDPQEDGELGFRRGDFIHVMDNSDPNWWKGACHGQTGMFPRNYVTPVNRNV

Sequence | SH2 binding enrichment (c-Src SH2) | SH2 binding enrichment (Grb2 SH2) | SH2 binding enrichment (SHP2-C SH2) | phosphorylation enrichment (FGFR3) | phosphorylation enrichment (Fes) | phosphorylation enrichment (c-Abl (mouse)) | phosphorylation enrichment (EPHB1) | phosphorylation enrichment (Jak2) | phosphorylation enrichment (Fyn) | phosphorylation enrichment (Fer (mouse)) | phosphorylation enrichment (Hck) | phosphorylation enrichment (MERTK) | phosphorylation enrichment (c-Src) | phosphorylation enrichment (EPHB2) | phosphorylation enrichment (AncSZ) | phosphorylation enrichment (FGFR1)
AEEEIYGEFEA [Src_opt_1995] | 0.483 | 0.774 | 0.69 | 1 | 1.49 | 0.97 | 0.808 | 1.29 | 1.26 | 0.923 | 1.12 | 0.58 | 1.14 | 0.75 | 1.51 | 0.694
EFQLPYFNMVP [BMPR1A_Y457_YF] | 0.751 | 2.82 | 0.95 | 3.58 | 1.01 | 0.618 | 0.389 | 7.21 | 0.547 | 0.348 | 0.596 | 0.584 | 2.12 | 0.46 | 1.01 | 5
EATKVYLDDPT [G6PD_Y322_G321V] | 0.534 | 0.837 | 0.746 | 0.656 | 0.967 | 0.656 | 0.482 | 0.803 | 0.444 | 0.451 | 0.458 | 0.385 | 0.357 | 0.558 | 0.852 | 0.428
CPSLLYSPVSS [CAMKK2_Y128_P127L] | 1.07 | 0.784 | 0.682 | 1.36 | 2.02 | 1.06 | 4.73 | 1.28 | 1.87 | 12.2 | 6.11 | 8.18 | 3.5 | 4.13 | 1.44 | 1.38
GHNNVYISEHV [GRIN2A_Y1423_D1421N] | 0.469 | 0.915 | 0.759 | 0.463 | 0.6 | 0.522 | 0.374 | 0.769 | 0.475 | 0.393 | 0.476 | 0.419 | 0.425 | 0.459 | 0.734 | 0.421
RHPFFFAPELL [ALB_Y174_Y174F_YF] | 1.05 | 1.34 | 1.44 | 1.64 | 1.72 | 1.02 | 0.947 | 1.15 | 0.771 | 0.529 | 0.859 | 0.727 | 0.932 | 0.842 | 1.64 | 0.619
HNMPIYEGFAL [ACTA1_Y168_V165M_YF] | 0.431 | 0.607 | 0.847 | 0.786 | 5.34 | 29.2 | 24.3 | 0.859 | 21.5 | 26.7 | 15.6 | 14.7 | 13.2 | 32.9 | 1.44 | 0.704
QPAGNYSLSSV [ARFGAP3_Y473] | 0.486 | 0.812 | 1 | 0.75 | 0.946 | 0.996 | 0.866 | 0.874 | 0.424 | 0.623 | 0.715 | 0.93 | 0.798 | 0.638 | 0.985 | 0.414
PYAEPYADYGG [APBA1_Y187_S184A] | 7.71 | 0.836 | 0.695 | 1.76 | 3.07 | 1.82 | 1.16 | 2.47 | 1.33 | 0.861 | 1.19 | 0.853 | 5.47 | 1.4 | 2.86 | 2.13
RGNMYYENSYA [EGFR_Y113] | 5.02 | 10.5 | 0.978 | 1.02 | 1.2 | 1.65 | 1.04 | 2.08 | 0.832 | 2.84 | 0.845 | 2.85 | 1.19 | 0.619 | 0.957 | 1.29
NPQKSYFILLY [WAS_Y83_R86L] | 0.573 | 0.914 | 0.827 | 1.38 | 1.19 | 0.719 | 0.657 | 1.19 | 0.421 | 0.437 | 0.434 | 0.396 | 0.416 | 0.551 | 0.958 | 1.79
RNLLIYTEFGK [HGD_Y166_G161R] | 0.457 | 0.94 | 0.194 | 0.945 | 1.22 | 2.48 | 2.86 | 0.997 | 8.15 | 0.827 | 5.2 | 5.3 | 4.93 | 1.12 | 1.4 | 0.583
PHMQTYEVDPN [SDHB_Y61_L65P] | 0.555 | 0.974 | 0.717 | 0.761 | 1.49 | 0.932 | 0.782 | 1.04 | 0.586 | 0.758 | 0.791 | 0.522 | 1.35 | 0.628 | 1.19 | 0.511
KCCCIYEKPRA [PPP1R11_Y64] | 0.478 | 0.879 | 0.705 | 0.814 | 1.46 | 7.54 | 1.07 | 1.34 | 1.95 | 8.2 | 2.67 | 1.65 | 3.6 | 1.06 | 2.23 | 0.523
TFEFRYLEDRD [CNOT3_Y746_YF] | 0.584 | 1.08 | 0.96 | 0.826 | 1.37 | 0.762 | 0.676 | 1.17 | 0.686 | 0.606 | 0.67 | 0.398 | 0.591 | 0.756 | 1.35 | 0.599
EFFDGYWGFSV [ITGA2B_Y265_YF] | 0.657 | 0.705 | 0.634 | 4.7 | 1.15 | 1.53 | 0.633 | 8.01 | 3.98 | 0.54 | 3.31 | 1.14 | 5.54 | 0.58 | 1.43 | 6.3
QRDSSYFWEIE [RAF1_Y340_YF] | 0.98 | 0.936 | 0.917 | 1.25 | 1.92 | 0.989 | 0.776 | 3.31 | 0.966 | 0.813 | 0.934 | 0.774 | 0.712 | 0.968 | 2.48 | 1.04

Sequence | SH2 binding enrichment (c-Src SH2) | SH2 binding enrichment (Grb2 SH2) | SH2 binding enrichment (SHP2-C SH2) | phosphorylation enrichment (FGFR3) | phosphorylation enrichment (Fes) | phosphorylation enrichment (c-Abl (mouse)) | phosphorylation enrichment (EPHB1) | phosphorylation enrichment (Jak2) | phosphorylation enrichment (Fyn) | phosphorylation enrichment (Fer (mouse)) | phosphorylation enrichment (Hck) | phosphorylation enrichment (MERTK) | phosphorylation enrichment (c-Src) | phosphorylation enrichment (EPHB2) | phosphorylation enrichment (AncSZ) | phosphorylation enrichment (FGFR1)
ANNPLYKEATS [ITGB3_Y773] | 0.53 | 1.04 | 0.913 | 0.379 | 0.53 | 0.635 | 0.363 | 0.406 | 0.343 | 0.228 | 0.385 | 0.316 | 0.3 | 0.499 | 0.395 | 0.349
MALDIYRASYY [ALK_Y1278_R1275L] | 1.19 | 1.15 | 0.9 | 0.713 | 0.911 | 2.99 | 0.594 | 0.86 | 0.974 | 0.434 | 1.57 | 0.674 | 1.76 | 0.564 | 0.874 | 0.655
KVVNEYVTKGQ [MYH7_Y410_G407V] | 0.369 | 0.857 | 0.798 | 0.489 | 0.601 | 0.513 | 0.358 | 0.53 | 0.36 | 0.393 | 0.402 | 0.375 | 0.433 | 0.451 | 0.806 | 0.431
VKPENDRRLDI [VHL_Y175_Y175D] | 0.584 | 1.12 | 0.718 | 0.539 | 0.789 | 0.535 | 0.44 | 0.692 | 0.43 | 0.43 | 0.43 | 0.531 | 0.356 | 0.438 | 0.675 | 0.37
RSPLRYISILT [OR51B6_Y130_T131I] | 1.07 | 1.01 | 1.33 | 0.763 | 0.8 | 0.419 | 0.446 | 0.475 | 0.409 | 0.606 | 0.515 | 0.376 | 0.322 | 0.473 | 0.724 | 0.676
SVETPYVSVTF [NDRG2_Y47_G48V] | 0.485 | 0.632 | 0.827 | 0.936 | 1.19 | 0.844 | 0.632 | 1.1 | 0.784 | 1.56 | 0.662 | 0.47 | 2.05 | 0.629 | 1.26 | 0.897
DTFDPYLDVAL [USP36_Y268_YF] | 0.414 | 0.707 | 0.953 | 0.857 | 1.24 | 0.833 | 0.641 | 1.25 | 0.704 | 1.52 | 0.701 | 0.557 | 0.712 | 0.622 | 1.18 | 0.658
FECKWYIPLTD [BCR_Y756_D752E_YF] | 0.561 | 0.685 | 0.817 | 1 | 1.49 | 0.796 | 0.754 | 1.32 | 0.434 | 0.592 | 0.538 | 0.433 | 0.451 | 0.723 | 1.23 | 0.497
NHQYDYTFDWT [CSNK1A1_Y294] | 3 | 1.07 | 0.561 | 2.67 | 0.991 | 0.646 | 0.606 | 0.899 | 0.66 | 0.569 | 0.543 | 1.04 | 1.62 | 0.767 | 1.38 | 3.99
LDPMVYMNDTS [PTK2B_Y834_K838T] | 1.05 | 3.37 | 0.668 | 0.708 | 1.11 | 1.32 | 0.494 | 1.48 | 0.588 | 0.787 | 0.728 | 0.7 | 0.811 | 0.734 | 0.958 | 0.64
RQNNSYTCFTA [SLC20A2_Y386_R382Q_YF] | 0.923 | 0.85 | 0.998 | 0.904 | 0.898 | 0.802 | 0.819 | 0.951 | 0.537 | 0.751 | 0.544 | 0.938 | 0.712 | 0.658 | 1.04 | 0.663
PFQGAYLEINK [MYO1B_Y967] | 7.89 | 0.874 | 0.832 | 0.763 | 1.09 | 0.497 | 0.609 | 1.24 | 0.526 | 0.401 | 0.361 | 0.464 | 0.607 | 0.577 | 1.03 | 0.485
CTSIHYNFMCN [TP53_Y234_T231S_YF] | 2.05 | 1.57 | 1.59 | 0.571 | 0.918 | 0.694 | 0.54 | 1 | 0.516 | 0.519 | 0.473 | 0.366 | 0.447 | 0.502 | 0.848 | 0.488
DEEFEYMNRRR [ERBB3_Y1199_YF] | 0.521 | 0.842 | 0.799 | 0.612 | 1.18 | 0.688 | 0.481 | 1.01 | 0.643 | 0.474 | 0.497 | 0.597 | 0.564 | 0.66 | 1.3 | 0.591
PFRQWYESHFA [RPS8_Y113_YF] | 1.07 | 1.22 | 1.04 | 0.524 | 1.11 | 0.764 | 0.827 | 0.963 | 0.586 | 3.73 | 0.68 | 0.906 | 0.972 | 0.786 | 1.08 | 0.731
MWGSDYVHLSR [MAP3K4_Y582_Q584H] | 0.568 | 0.914 | 0.746 | 1.82 | 0.693 | 0.804 | 3.2 | 1.72 | 0.472 | 0.417 | 0.486 | 0.53 | 0.471 | 1.47 | 0.951 | 3.31
